The assay addresses human α-synuclein (human, UniProt P37840 1-140). In words: cell-based or functional assay.

One molecule from article PMC4605646 (PLoS ONE, 2015) can be followed below.

B1: CsgE (natural protein)
chain: VEVEVPGLLTDHTVSSIGHDFYRAFSDKWESDYTGNLTINERPSARWGSWITITVNQDVIFQTFLFPLKRDFEKTVVFALIQTEEALNRRQINQALLSTGDLAHDEF
On to B1, for which the “lag phase of α-synuclein amyloid formation (ThT fluorescence, 70 μM α-synuclein, 37°C, agitation) at CsgE-to-α-synuclein molar ratios of 1-to-3, 1-to-10 and 1-to-100” value was 4 fold.
